# Data as given in the domain aggregation screens of Martell et al. (2025).
# Assay: soluble fraction after stress (log2 fold change); higher = more stays soluble; pooled small domains, quantitative proteomics
# Conditions: stress: 75 degC
# 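Note: 20 min heating vs room temperature control held 20 min.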
row,Sequence,soluble fraction (log2)
1,HMTLFDESGYTARELEIIREVANGLSNKEIADKLFLSEGTVKNYITGILAKENLSHRTALAVYYLTGRK,-1.83
2,HMTLHEAMEKLFRQVGRPMTTKEIAEKLNENKWYQKADGSPLTPYQIYGRAKNYPALFHREGSIIYLKGS,-0.547
3,HMTLKTISLTEAIKNTNEGNYSKLVLDGNELTITEQGKETPSLKTYTEPGTSLKEQGFDLSKVEFEAREQS,-0.0223
4,HMTLNQEELMGKTEAILFAGGEPVSLDRIAQVLGVRTPVIDSIVSALQEKYNTPTSGIQLMRL,-0.267
5,HMTLPELTDRELQILQLLSVGNSSQKIAKQLNISTHTVSTHRKQLLRKLGAQNGADLIRRAQKLGIL,-1.78
6,HMTLQEFYARVGGDYNATLSRLPSEALVKKFILKYPGDPSFAQLKDALAAQDWELAFRASHTLKGVAQN,-1.9
7,HMTLSAPMPGTVLKIHVKEGQRVRKGQTLVVLEAMKMEHRIQAPKAGEVTNLHFSEGDRVDMGEILVEIG,-2.34
8,HMTLSDDEFEIIKSLIIDTLKEEALTINALTKKINHKEAKTIQVIRFLLDNGLVAENNLMKLFVI,-1.43
9,HMTLTIEDQLRRLRARLGRGRAFLFSDVLVNPHDRTEIAVTLLALLELIKRREAQASQSYLFGPIEVAAA,-2.01
10,HMTLTLEQAAAIKNSEGEQYGKIESERLAAMSVQIDKAIKSNGHDPNKKADLERKLDAIGIILNARAAG,0.222
11,HMTLVKRSAMVTAWSEFAGGRVNSKLIALQNGKAGDWIELENPQSGRKLRGRVQSDGSVRLGS,-1.07
12,HMTLYITDQMRKILDYVATNQEIDEKAVMDLLSIQRTRAYLIAKKMTDIGLLQVQGRGKTKTYRLAARS,-2.08
13,HMTLYQIGDKVVHPMHGAGVIDSVVQRKVSGQVQEFYLLKLSVGNMVVMVPTDNTGEIGMRP,-2.52
14,HMTMEQAEFLSRQFNLLSQRLNDPSIEWQDIADLRSEYTGEDEHRDTIRKGAKLFYEYLEAGWIKN,-0.76
15,HMTMKNPNGYGSVINLGKGRRRPWAARVTTGLVYDEKKDKLIQRYKYIGYADTRKEAHQILAEYNAGLPI,-1.76
16,HMTMMTFGEKLQNARKGAGLSQEQLAEKLSVSRSAVAKWENDNGMPDIDNLKAIAQLLDVSIDYLLEN,0.812
17,HMTMNLIEIGHVVGARRAELGLTQAQLAHLSGLSRQTVVGLEKGTLSDLGVNRVGQVMAVLGLDS,-0.555
18,HMTMPDFGYMRVSYAEARRQLQAIGISVSTIEKVEDPSHTSATGDMVISQYPAAGSKIEGTVTLYVSVAS,-3.65
19,HMTMSFSELLRGLRKSRGMSQAELATAVGLSQAQVSQIETGKLLPSPELIEKLAALYGIALGSA,0.279
20,HMTMTKELGQRIRAERTARKMTQEELAERADLHPTYIGQVERGEKSLTIASLEKIVEGLGISFSDLFEN,0.244
21,HMTMVKYRYLTDGELKEFEEEFKHFLIANGLHSEEWERLNNEDSNKAIEVVALFSNLILDKV,-1.81
22,HMTMVLPDAARDKLKAIGLSIEHVEPSPVKDIFTVISREGVSYVSKDGDYIFTGSLFHVKGKDVVNTTEQA,0.0464
23,HMTNEAFITPSVLEWAIKRAGVSAESIHKKAEQWVSGKARPTFKQAVDIAKTLQIPFGYLWLKEPPKEQ,-0.949
24,HMTNELVNVNKLLDVMEPSIPLTALEIMTRLGIKSKETLRNSYLNPAIKLGMINLTSPLKPTSKNQMYYK,-1.02
25,HMTNKSKQRRNEILRASQELFNKKGFHDTSINDIMRRVGAAKGVFYYYFETKDQILDTLIEQHIA,-0.978

row,Sequence,soluble fraction (log2)
1,HMTNLTPKQQQIYQFIRASTQANGYPPTLREIGQQVGVRSPSTVKYHLDNLRTLGLLHWDGGKTRSITLP,-0.77
2,HMTNNFIVTWRNYNEEVLEIDVNVKKGSMPKYNGKTPEREGYQFVGWDPEITEVTKDITYVAQFM,-1.92
3,HMTNQKEITYSQFRQELDQGSIKSVSLQGSRIRGTYVDGGISFRTLAPNDADLIPSLMKHKVDIQVLPED,0.292
4,HMTNSTGWSKSGGTQVTIREGETIYNLSRRYGVPAKSIMEANGIADATAVRAGQRISIPTYSY,-0.0378
5,HMTNVDELIGKEAVVVKEIRPYTTGEVKLDGKVWRAMSESKQVYKVDEIVTVLRIEGVTMII,-2.46
6,HMTNVETLVRMRLRSIRTTLGYSLDEIAERSNLSASTVSRIETGKRALSIDVLVPLAAALQVSVDDLLRAE,-2.92
7,HMTNYREILRLRSLGLNHSRIAESMGISRPTVIAALQRAQTQELNWQAAESLSDIDLAQRLNP,-0.847
8,HMTNYYTVTFKEGDTVLKEVSVHSGDGVPYAVAPKRDDIVGWSYNGNTYTTDLNTLKIKKEVTFTAVT,0.235
9,HMTPAIEKTAVIVFINGKKYYVHTVKSGETLYSIAKAYKVDEKVIKEHNPNVADGLRIDQTVKIPVPEQVK,-0.549
10,HMTPAPHESLTDREMEVLKLLAQGLSNQEIADKLFIGVKTVKYHITNIFSKLGVEDRTQAAIYAHKQGLA,-0.475
11,HMTPDDSYIAGYAAGILKHQFLIDAPELIVRNGTITIPADKVSAGDRAKVVQILSGIPGVTRVEVG,0.224
12,HMTPDVHRGDTITVSLRAGAIRVRVPAKALEEGAAGGEIRVVNLTGGREYRVRVTGPGTAEAIL,-0.966
13,HMTPEGAYTVSEIVKVINSFADEYKVPFTMHVSGYKYEEIAQQLGLPIGTVKSRIFFARKRLQELLN,-2.45
14,HMTPEPVTMYITSLTEFRSEPNTEAGIIKLLDAYEEVEMIESRGEWSKISYGDQIGYILSEFLTAENRT,-0.85
15,HMTPILTAQQVVAALQAAGYRNVHDLEFEHGRWEADAVNAAGQRVELHINPYTGAIERERLD,0.584
16,HMTPKTSVPKPGQTVVVRKGDTIYALARIHDITPADLIAWNRLDNPSQIYPGQVIRLYPQGA,-0.563
17,HMTPKVDLTVAEDGSASAVIAGLRVEIDAAGKVTAVAPADGTTDLSSVAPEAVKEAMDNALAAYTASKG,0.12
18,HMTPLFNQGEVLKGFVLQTGTNNRVLLQIGTAKVLADAQTPLKAGEQLTLRVEATGPRTVLQILG,-0.461
19,HMTPLILTAQEGGERLDAFVASQVEDLTRSAAQRLLEQGAVTSGGKPLKKNAKTTPGMVVEVLLPDPQ,-0.113
20,HMTPPPTNSREWMEWGISHGLDANLDRSGQVVFYTDDRVVADAAELSGADLERDNMGQFVIYTGAYDKG,0.0155
21,HMTPQEQWNNAYLLAKDYYDANGNLDIDEKYKTKDGFELGSWLTTQRNVYKRGKLSPEKTKKLEEIGISF,0.0776
22,HMTPQGALDYSRNAKYLRDQVTAINYLKQARLSLNTTDANYRQTLEQINQAIAKHNQALQQAGVQSQQLAT,-0.00591
23,HMTPTPQQNNILVGQTGTTLTRLAPMGKVRVGEVTAEAKTIDGYINPRQSVEVIGFENTVVIVRAV,-0.748
24,HMTPVIINESGGDQDTRIEGLNDNNLLYVDASTDRVGVGVATPTQKLDVNGDVAISGGSLYLSQ,0.183
25,HMTPVKAPLPGVVTKINVSVGQQVKKGENVLVLEAMKMENNIAAEADGTVSGIAVKAGDSVLEGAVLLTI,0.0213
